Source: patent US20140235701, “NGF APTAMER AND APPLICATION THEREOF” (RIBOMIC INC., published 2014)

How the values were obtained:
Settings in all cases: tags: R&D Systems; chain copies: 2
[1] = target: T1, NGF (nerve growth factor) (Homo sapiens, UniProt P01138 P01138:122-241); experiment: SPR; more than 40N
Method: As the measuring apparatus, BIAcore2000 manufactured by BIAcore was used and, as the sensor chip, CM5 that reacts with an amino group was used. […] For the reaction of an amino group on the protein side and a carboxyl group on the chip side, ethyl-3-carbodiimide hydrochloride and N-hydroxysuccinimide were used. After the reaction, blocking by ethanolamine-HCl was performed. The immobilized amount of NGF was set to 3,000-4,000 RU. An aptamer for analyte was prepared to 0.15 μM-0.5 μM. As a running buffer, solution A was used. Here, solution A is a mixed solution of 145 mM sodium chloride, 5.4 mM potassium chloride, 1.8 mM calcium chloride, 0.8 mM magnesium chloride, 20 mM Tris (pH 7.6), 0.05% Tween 20. As a regeneration solution, a mixed solution of 1M NaCl and 50 mM NaOH was used. NGF was immobilized on FC2, and the results of FC1 were subtracted to give a final sensorgram.
The binding activity of these aptamers to NGF was evaluated by the surface plasmon resonance method in the same manner as in Example 1.

[2] = target: T1, NGF (nerve growth factor); experiment: SPR; strong inhibition of NGF-receptor binding
Method: As directed in BIAcore's protocol, Protein A (21181, PIERCE) was immobilized on a CM5 sensor chip. About 700 to 1200 RU of human TrkA fused with the Fc portion of IgG (175-TK, R&D systems) or human P75 (367-NR, R&D systems) was immobilized thereon. As the analyte, a mixture of NGF (0.1 μM) and each aptamer (0.3 μM) was injected after being allowed to stand for 30 minutes. […] When NGF binds stronger to a receptor than an aptamer, the aptamer may be removed and NGF may bind to the receptor. Before starting the inhibition experiment, binding of TrkA or p75 and NGF was confirmed.

[3] = target: T1, NGF (nerve growth factor); experiment: SPR; binding maintained
[4] = target: T1, NGF (nerve growth factor); experiment: SPR; inhibits NGF-receptor binding; inhibits neurite outgrowth at 10 nM

T1 sequence (P01138 122-241, one chain of several): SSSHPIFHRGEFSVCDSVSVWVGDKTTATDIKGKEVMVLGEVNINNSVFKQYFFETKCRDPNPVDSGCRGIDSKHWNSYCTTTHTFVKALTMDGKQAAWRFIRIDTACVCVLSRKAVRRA

GUGCAAUACUUUCGCGGCAUAUGUGCAAACCUUGCCACGACUAUGUGCGC (ssRNA, 2'-F C and U; 2'-OH G; 2'-H (deoxy) A) [SEQ ID NO: 20]
binding result [1]: binds

B1: SEQ ID NO: 3 (ssRNA)
RNA: GGGAGAACUUCGACCAGAAGUUGGCACAUCCUGCUGCGUAGUUUCCGUCUCCGUGGCUGUUAUGUGCGCAUACAUGGAUCCUC
modifications: 2'-F C and U; 2'-OH G; 2'-H (deoxy) A
binding result [2]: binds

B2: SEQ ID NO: 7 (ssRNA)
RNA: GGGAGAACUUCGACCAGAAGACGCACCUCUUAUCACACAUGCGUCAGCCUUGUGAUACUAUGUGCGCAUACAUGGAUCCUC
modifications: 2'-F C and U; 2'-OH G; 2'-H (deoxy) A
binding result [2]: binds

GGGUCCUGCUGCGUAGUUUCCGUCUACGUGGCUGUUACCC (ssRNA, 2'-F C/U, dA, 2'-OH G) [SEQ ID NO: 63]
binding result [3]: binds

GGGUCCUGUUGCGUAGUUUCCGUCUGCGUGGCUGUUACCC (ssRNA, 2'-F C/U, dA, 2'-OH G) [SEQ ID NO: 69]
binding result [3]: binds

GGGUCCUGCUGCGUAGUUUCCGUCUUCGCGGUUGUUACCC (ssRNA, 2'-F C/U, dA, 2'-OH G) [SEQ ID NO: 75]
binding result [3]: binds

GGGUCCUGCUACGGAGUUUCCGUCUCGGUGGCUGUUACCC (ssRNA, 2'-F C/U, dA, 2'-OH G) [SEQ ID NO: 65]
binding result [3]: binds

GGGUCCUGUUGCGUAGUUUCCGUCUACGUGACUGUUACCC (ssRNA, 2'-F C/U, dA, 2'-OH G) [SEQ ID NO: 64]
binding result [3]: binds

B3: SEQ ID NO: 4 (ssRNA)
RNA: GGGAGAACUUCGACCAGAAGUACGUUAGUACGUUUGCAUAUGUACAACCUUGCAUACGAUACGUAGAUUAUGUGCGCAUACAUGGAUCCUC
modifications: 2'-F C and U; 2'-OH G; 2'-H (deoxy) A
binding result [2]: binds

GCAAUACUUUCGCGGCAUAUGUGCAAACCUUGCCACGACUAUGUGC (ssRNA, 2'-F C and U; 2'-OH G; 2'-H (deoxy) A) [SEQ ID NO: 19]
binding result [1]: binds

B4: SEQ ID NO: 6 (ssRNA)
RNA: GGGAGAACUUCGACCAGAAGUGCAAUACUUUCGCGGCAUAUGUGCAAACCUUGCCACGACUAUGUGCGCAUACAUGGAUCCUC
modifications: 2'-F C and U; 2'-OH G; 2'-H (deoxy) A
binding result [4]: binds

UGCAAUACUUUCGCGGCAUAUGUGCAAACCUUGCCACGACUAUGUGCG (ssRNA, 2'-F C and U; 2'-OH G; 2'-H (deoxy) A) [SEQ ID NO: 18]
binding result [1]: binds
